From article PMC9438502, “Complementarity of neutron, XFEL and synchrotron crystallography for defining the structures of metalloenzymes at room temperature” (IUCrJ, 2022)

Molecular target: the molecule itself
Test: crystal structure; room-temperature crystals of DHP-B, space group P2(1)2(1)2(1); neutron, in-house X-ray, SFX, SSX and serial Laue data; two protomers (A, B) in the asymmetric unit

B1: dehaloperoxidase B (enzyme, Amphitrite ornata)
chain: MGFKQDIATLRGDLRTYAQDIFLAFLNKYPDEKRNFKNYVGKSDQELKSMAKFGDHTEKVFNLMMEVADRATDCVPLASDASTLVQMKQHSGLTTGNFEKLFVALVEYMRASGQSFDSQSWDRFGKNLVSALSSAGMK
notes: dehaloperoxidase B (DHP-B), heme-containing coelomic hemoglobin of the marine annelid Amphitrite ornata; 274 protein residues modelled for the two protomers of the asymmetric unit; Heme protein, ferric or oxyferrous; The crystal for NX and NX-Xray was perdeuterated (97% deuteration level); the other crystals were protiated; also called DHP-B; dehaloperoxidase isoenzyme B; source: E. coli …
binding result: binds
